Measured values reported in publication PMC10154332, “Mirror proteorhodopsins” (Communications Chemistry, 2023).

What was measured:
[1] = biological target: T1, SpaR (Sphingomonas paucimobilis rhodopsin) (Sphingomonas paucimobilis, UniProt A0A411LJN5); test: X-ray crystallography, in meso crystals, […] A; format: binding; details: covalent Schiff base to K211; crystals at pH 5.2
T1 construct: gene HKX06_19670; E. coli C41(DE3) codon-optimised gene in pET32b (NdeI/XhoI), C-terminal His tag, DDM-solubilised, Ni-NTA and SEC; trimer
T1 sequence (A0A411LJN5 1-237): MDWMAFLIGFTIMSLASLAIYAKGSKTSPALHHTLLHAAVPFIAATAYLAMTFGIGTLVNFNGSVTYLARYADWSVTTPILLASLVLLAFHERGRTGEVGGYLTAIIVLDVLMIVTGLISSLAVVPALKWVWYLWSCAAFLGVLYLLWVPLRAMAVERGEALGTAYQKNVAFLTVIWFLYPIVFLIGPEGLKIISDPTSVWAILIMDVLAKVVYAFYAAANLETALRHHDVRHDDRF

[2] = biological target: Sphingomonas paucimobilis rhodopsin (SpaR) (Sphingomonas paucimobilis); test: crystal structure; in meso (monoolein) crystals, 0.78 M NaH2PO4/K2HPO4 pH 5.2, 22 °C; space group C2; 2.8 Å
[3] = biological target: Sphingomonas paucimobilis rhodopsin (SpaR) (Sphingomonas paucimobilis); test: SEC; DDM-solubilized SpaR at five pH values (4.4, 5.4, 6.4, 7.4, 8.4); at pH 4.4 only a single trimer peak, further peaks of higher molecular weight with increasing pH
[4] = biological target: Sphingomonas paucimobilis rhodopsin (SpaR) (Sphingomonas paucimobilis); test: SAXS; solubilized SpaR ~5 mg/ml in 100 mM NaCl, 0.5 mM EDTA, 0.01% NaN3, 20 mM TRIS(HCl) pH 7.2, 0.05% DDM; profile 0.04-0.26 1/A fitted with MEMPROT (detergent corona), trimer against monomer model
[5] = biological target: Asp73 (position 73, …); test: UV-vis; details: 150 mM NaCl, 50 mM MES, Dark (ground) state, DDM-solubilised
[6] = biological target: Asp97 (UniProt position 97, …); details: cited from earlier work

CC1=C(/C=C/C(C)=C/C=C/C(C)=C/C=O)C(C)(C)CCC1 [retinal]
X-ray crystallography, in meso crystals, 2.8 A [1]: the retinal co-factor is covalently bound to the K211 residue of the helix G

Sphingomonas paucimobilis rhodopsin (SpaR) (natural protein)
stoichiometry N [2]: 3
stoichiometry N [3]: 3
stoichiometry N [4]: 3

B1: SpaR (Sphingomonas paucimobilis rhodopsin, mirror proteorhodopsin) (Sphingomonas paucimobilis) (protein)
chain: MDWMAFLIGFTIMSLASLAIYAKGSKTSPALHHTLLHAAVPFIAATAYLAMTFGIGTLVNFNGSVTYLARYADWSVTTPILLASLVLLAFHERGRTGEVGGYLTAIIVLDVLMIVTGLISSLAVVPALKWVWYLWSCAAFLGVLYLLWVPLRAMAVERGEALGTAYQKNVAFLTVIWFLYPIVFLIGPEGLKIISDPTSVWAILIMDVLAKVVYAFYAAANLETALRHHDVRHDDRF
pKa ([5]; 5 mM ZnCl2, in the presence of 5 mM Zn2+): 0.98±0.01
pKa ([5]; no Zn2+): 1.03±0.01

B2: Green proteorhodopsin (PR) (uncultured marine gamma proteobacterium (printed as 'Gamma-proteobacterium')) (protein)
chain: MKLLLILGSVIALPTFAAGGGDLDASDYTGVSFWLVTAALLASTVFFFVERDRVSAKWKTSLTVSGLVTGIAFWHYMYMRGVWIETGDSPTVFRYIDWLLTVPLLICEFYLILAAATNVAGSLFKKLLVGSLVMLVFGYMGEAGIMAAWPAFIIGCLAWVYMIYELWAGEGKSACNTASPAVQSAYNTMMYIIIFGWAIYPVGYFTGYLMGDGGSALNLNLIYNLADFVNKILFGLIIWNVAVKESSNA
pKa [6]: 7.68
